What was measured:
[1] = target: Trypanosoma brucei haptoglobin-haemoglobin receptor, truncated N-terminal ligand-binding domain (residues 36-299) (Trypanosoma brucei brucei) (UniProt Q581F2); experiment: SPR
[2] = target: Native (dimeric) human haptoglobin-haemoglobin complex (Hp 1-1 with Hb) (human) (UniProt P00738); experiment: SEC-MALS
[3] = target: Native (dimeric) human haptoglobin-haemoglobin complex (Hp 1-1 with Hb) (human) (UniProt P00738); experiment: SEC-SAXS

Substance	Kd [1] [nM]	stoichiometry N (receptors per HpHb) [2]	stoichiometry N (receptors per HpHb) [3]
HpSPHb complex: serine protease domain of human haptoglobin (148-406) bound to a human haemoglobin alpha-beta dimer (from UniProt P00738 148-406)	700		
Trypanosoma brucei haptoglobin-haemoglobin receptor, truncated N-terminal ligand-binding domain (residues 36-299) (from UniProt Q581F2 36-299)		2	2
HprSPHb complex: serine protease domain of human haptoglobin-related protein (90-348) bound to human haemoglobin (from UniProt P00739 90-348)	1700		
